Data published in US20240092836A1 (GENEFRONTIER, published 2024).

B1: H12SSI-Ctla4-3-02 (MBP fusion) (peptide, not shown: large carriers; small tags and cut ends)
chain: GGCMHPFLLVVSHHFCGG
notes: MBP fusion; also called original clone; Original
B2: C4-302mat-3-100-44 (peptide, not shown: large carriers; small tags and cut ends)
chain: GGCLHPFLPIVSHHFCGR
notes: MBP fusion; also called clone #10; No. #10

What follows are binders tested against T1, Orencia (assay: ELISA, signal on Orencia over SA).
T1 sequence (chain, INN chains, looked up, looked up): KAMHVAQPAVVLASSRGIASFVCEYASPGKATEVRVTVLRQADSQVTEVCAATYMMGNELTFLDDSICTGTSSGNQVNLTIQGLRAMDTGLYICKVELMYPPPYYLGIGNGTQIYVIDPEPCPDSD
Description: (§1) 10 μL of E. coli cultured medium was added with 90 μL of PBS and 40 μL of lysis reagent (20 μL BugBuster Protein Extraction Reagent (Novagen), 20 μL Lysozyme solution 2.5 mg/mL) to lyse E. coli cells for 1 hour at room temperature. […] In parallel, antigen protein was immobilized overnight at 4° C. in 384-well plates at 100 ng/20 μL per well, and each well was washed twice with 100 μL/well of TBST, added with 100 μL/well of 5% skim milk solution (TBST) for blocking for 1 hour at room temperature, and washed twice with 100 μL/well of TBST to obtain antigen-immobilized plates. 20 μL/well of blocking-treated E. coli extract was added to the antigen-immobilized plates and gently stirred at room temperature using a plate mixer. […] The plates were washed 5 times with 100 μL/well of TBST, and binding of cyclic peptides to the antigen was detected by 20 μL/well of chromogenic substrate (0.4 mg/mL 3,3′,5,5′-Tetramethyl-benzidine, 0.01% hydrogen peroxide). After 15 minutes of reaction at room temperature, the reaction was stopped with 20 μL/well of 2N HCl, and absorbance at 450 nm was measured using a plate reader (infinite F200: TECAN) (Table 5).
(§2) An Error-Prone Library was prepared based on H12SSI-Ctla4-3-02, and Affinity Maturation selection experiments were performed. The cyclic peptide genes obtained in each round were subcloned, 94 single colonies were cultured in 96-well plates, and the CTLA-4 binding activity of each MBP-fused cyclic peptide was examined by ELISA.

Row | Binder | S/N(SA)
1 | GGCIHPFLQVVSHHFCGG (peptide, not shown: large carriers; small tags and cut ends, MBP fusion; also called #28) [C4-302mat-1-1-21] | 2.7
2 | GGCMHPYLPVISHHFCGG (peptide, not shown: large carriers; small tags and cut ends, MBP fusion; also called #15) [C4-302mat-2-1-27] | 13.7
3 | GGCMHPFLPVVSHHFCGG (peptide, not shown: large carriers; small tags and cut ends, MBP fusion) [C4-302mat-1-1-24] | 14.7
4 | GGCMHPYLLVASHHFCER (peptide, not shown: large carriers; small tags and cut ends, MBP fusion; also called #39) [C4-302mat-3-1-9] | 8.8
5 | GGCMHPYLLVVSHHFCGR (peptide, not shown: large carriers; small tags and cut ends, MBP fusion; also called #40) [C4-302mat-2-100-24] | 4
6 | GGCMHPFLQVVSHHFCGG (peptide, not shown: large carriers; small tags and cut ends, MBP fusion; also called #27) [C4-302mat-2-100-4] | 9.3
7 | GGCMHPFLQVASHHFCGG (peptide, not shown: large carriers; small tags and cut ends, MBP fusion) [C4-302mat-2-1-40] | 6.9
8 | GGCMHPFLPVVSHHFCGR (peptide, not shown: large carriers; small tags and cut ends, MBP fusion) [C4-302mat-3-100-37] | 18
9 | GGCMHPFLRVVSHHFCGR (peptide, not shown: large carriers; small tags and cut ends, MBP fusion; also called #33) [C4-302mat-3-1-14] | 15.5
10 | GDCKHPYLLTVSHHFCGR (peptide, not shown: large carriers; small tags and cut ends, MBP fusion; also called #42) [C4-302mat-3-1-25] | 4.3
11 | B1 | 4.3
12 | GGCLHPFLPVVSHHFCGD (peptide, not shown: large carriers; small tags and cut ends, MBP fusion; also called #8) [C4-302mat-2-1-2] | 23.5
13 | GGCMHPFLKIASHHFCGG (peptide, not shown: large carriers; small tags and cut ends, MBP fusion; also called #36) [C4-302mat-3-1-8] | 8.2
14 | GGCMHPFLPVVSHHFCRG (peptide, not shown: large carriers; small tags and cut ends, MBP fusion) [C4-302mat-2-100-18] | 16.1
15 | GGCKHPFLRVVSHHFCRR (peptide, not shown: large carriers; small tags and cut ends, MBP fusion; also called #34) [C4-302mat-2-1-12] | 8.5
16 | GGCRHPFLPIVSRHFCRG (peptide, not shown: large carriers; small tags and cut ends, MBP fusion; also called #11) [C4-302mat-3-1-45] | 11.2
17 | GGCKHPFLPVVSHHFCGG (peptide, not shown: large carriers; small tags and cut ends, MBP fusion; also called #13) [C4-302mat-3-100-9] | 14.4
18 | GGCMHPFLLTVSRHFCGG (peptide, not shown: large carriers; small tags and cut ends, MBP fusion; also called #44) [C4-302mat-3-1-11] | 8.1
19 | GSCMHPFLLVASHHFCRG (peptide, not shown: large carriers; small tags and cut ends, MBP fusion; also called #38) [C4-302mat-2-100-33] | 2.3

Row | Binder | S/N(SA)
20 | GGCVHPFLPVVSHHFCRG (peptide, not shown: large carriers; small tags and cut ends, MBP fusion; also called #12) [C4-302mat-3-100-20] | 3.7
21 | GGCMHPFLQTVSHHFCGG (peptide, not shown: large carriers; small tags and cut ends, MBP fusion; also called #22) [C4-302mat-3-1-35] | 5.3
22 | GGCKHPYLPVASHHFCRG (peptide, not shown: large carriers; small tags and cut ends, MBP fusion; also called #14) [C4-302mat-3-1-10] | 10.3
23 | GGCVHPFLQVVSHHFCGG (peptide, not shown: large carriers; small tags and cut ends, MBP fusion; also called #29) [C4-302mat-1-100-23] | 5.4
24 | GGCMHPFLPVVSHHFCGA (peptide, not shown: large carriers; small tags and cut ends, MBP fusion) [C4-302mat-3-1-48] | 14.6
25 | GGCMHPFLLVASHHFCGV (peptide, not shown: large carriers; small tags and cut ends, MBP fusion) [C4-302mat-2-1-37] | 2.3
26 | GGCLHPFLPLVSHHFCGG (peptide, not shown: large carriers; small tags and cut ends, MBP fusion; also called #9) [C4-302mat-2-1-38] | 16.4
27 | GGCMHPFLPVASHHFCGR (peptide, not shown: large carriers; small tags and cut ends, MBP fusion; also called #6) [C4-302mat-3-1-22] | 18.9
28 | GGCMHPFLRVVSHHFCGG (peptide, not shown: large carriers; small tags and cut ends, MBP fusion; also called #32) [C4-302mat-1-1-37] | 14.2
29 | GGCMHPFLQVVSHHFCGS (peptide, not shown: large carriers; small tags and cut ends, MBP fusion; also called #26) [C4-302mat-2-1-35] | 17.9
30 | GGCMHPFLPVASHHFCGG (peptide, not shown: large carriers; small tags and cut ends, MBP fusion) [C4-302mat-1-1-35] | 11.2
31 | GGCMHPYLQVVSHHFCGR (peptide, not shown: large carriers; small tags and cut ends, MBP fusion) [C4-302mat-3-1-2] | 21.9
32 | GGCMHPFLPVASHHFCAG (peptide, not shown: large carriers; small tags and cut ends, MBP fusion) [C4-302mat-3-100-27] | 16.6
33 | GGCMHPFLLVVSRHFCGR (peptide, not shown: large carriers; small tags and cut ends, MBP fusion) [C4-302mat-2-100-40] | 3.9
34 | GGCKHPFLLIVSHHFCGR (peptide, not shown: large carriers; small tags and cut ends, MBP fusion; also called #45) [C4-302mat-3-100-39] | 2.3
35 | GGCMHPFLRIVSQHFCRR (peptide, not shown: large carriers; small tags and cut ends, MBP fusion; also called #35) [C4-302mat-2-1-24] | 2.4
36 | GGCMHPYLLVVSRHFCGR (peptide, not shown: large carriers; small tags and cut ends, MBP fusion; also called #41) [C4-302mat-3-1-15] | 5.4
37 | B2 | 18.5

Each binder was assayed against T1, Orencia (assay: ELISA, MBP fusion in E. coli lysate on Orencia).
Description: as §1, §2

Row | Binder | ELISA A450
38 | GGCIHPFLQVVSHHFCGG (peptide, not shown: large carriers; small tags and cut ends, MBP fusion; also called #28) [C4-302mat-1-1-21] | 0.155
39 | GGCMHPYLPVISHHFCGG (peptide, not shown: large carriers; small tags and cut ends, MBP fusion; also called #15) [C4-302mat-2-1-27] | 0.785
40 | GGCMHPFLPVVSHHFCGG (peptide, not shown: large carriers; small tags and cut ends, MBP fusion) [C4-302mat-1-1-24] | 0.78
41 | GGCMHPYLLVASHHFCER (peptide, not shown: large carriers; small tags and cut ends, MBP fusion; also called #39) [C4-302mat-3-1-9] | 0.574
42 | GGCMHPYLLVVSHHFCGR (peptide, not shown: large carriers; small tags and cut ends, MBP fusion; also called #40) [C4-302mat-2-100-24] | 0.227
43 | GGCMHPFLQVVSHHFCGG (peptide, not shown: large carriers; small tags and cut ends, MBP fusion; also called #27) [C4-302mat-2-100-4] | 0.545
44 | GGCMHPFLQVASHHFCGG (peptide, not shown: large carriers; small tags and cut ends, MBP fusion) [C4-302mat-2-1-40] | 0.366
45 | GGCMHPFLPVVSHHFCGR (peptide, not shown: large carriers; small tags and cut ends, MBP fusion) [C4-302mat-3-100-37] | 1.17
46 | GGCMHPFLRVVSHHFCGR (peptide, not shown: large carriers; small tags and cut ends, MBP fusion; also called #33) [C4-302mat-3-1-14] | 0.985
47 | GDCKHPYLLTVSHHFCGR (peptide, not shown: large carriers; small tags and cut ends, MBP fusion; also called #42) [C4-302mat-3-1-25] | 0.264
48 | B1 | 0.228
49 | GGCLHPFLPVVSHHFCGD (peptide, not shown: large carriers; small tags and cut ends, MBP fusion; also called #8) [C4-302mat-2-1-2] | 1.2
50 | GGCMHPFLKIASHHFCGG (peptide, not shown: large carriers; small tags and cut ends, MBP fusion; also called #36) [C4-302mat-3-1-8] | 0.555
51 | GGCMHPFLPVVSHHFCRG (peptide, not shown: large carriers; small tags and cut ends, MBP fusion) [C4-302mat-2-100-18] | 0.857
52 | GGCKHPFLRVVSHHFCRR (peptide, not shown: large carriers; small tags and cut ends, MBP fusion; also called #34) [C4-302mat-2-1-12] | 0.51
53 | GGCRHPFLPIVSRHFCRG (peptide, not shown: large carriers; small tags and cut ends, MBP fusion; also called #11) [C4-302mat-3-1-45] | 0.689
54 | GGCKHPFLPVVSHHFCGG (peptide, not shown: large carriers; small tags and cut ends, MBP fusion; also called #13) [C4-302mat-3-100-9] | 0.779
55 | GGCMHPFLLTVSRHFCGG (peptide, not shown: large carriers; small tags and cut ends, MBP fusion; also called #44) [C4-302mat-3-1-11] | 0.412
56 | GSCMHPFLLVASHHFCRG (peptide, not shown: large carriers; small tags and cut ends, MBP fusion; also called #38) [C4-302mat-2-100-33] | 0.117

Row | Binder | ELISA A450
57 | GGCVHPFLPVVSHHFCRG (peptide, not shown: large carriers; small tags and cut ends, MBP fusion; also called #12) [C4-302mat-3-100-20] | 0.221
58 | GGCMHPFLQTVSHHFCGG (peptide, not shown: large carriers; small tags and cut ends, MBP fusion; also called #22) [C4-302mat-3-1-35] | 0.299
59 | GGCKHPYLPVASHHFCRG (peptide, not shown: large carriers; small tags and cut ends, MBP fusion; also called #14) [C4-302mat-3-1-10] | 0.586
60 | GGCVHPFLQVVSHHFCGG (peptide, not shown: large carriers; small tags and cut ends, MBP fusion; also called #29) [C4-302mat-1-100-23] | 0.25
61 | GGCMHPFLPVVSHHFCGA (peptide, not shown: large carriers; small tags and cut ends, MBP fusion) [C4-302mat-3-1-48] | 0.903
62 | GGCMHPFLLVASHHFCGV (peptide, not shown: large carriers; small tags and cut ends, MBP fusion) [C4-302mat-2-1-37] | 0.12
63 | GGCLHPFLPLVSHHFCGG (peptide, not shown: large carriers; small tags and cut ends, MBP fusion; also called #9) [C4-302mat-2-1-38] | 0.807
64 | GGCMHPFLPVASHHFCGR (peptide, not shown: large carriers; small tags and cut ends, MBP fusion; also called #6) [C4-302mat-3-1-22] | 1.11
65 | GGCMHPFLRVVSHHFCGG (peptide, not shown: large carriers; small tags and cut ends, MBP fusion; also called #32) [C4-302mat-1-1-37] | 0.665
66 | GGCMHPFLQVVSHHFCGS (peptide, not shown: large carriers; small tags and cut ends, MBP fusion; also called #26) [C4-302mat-2-1-35] | 0.904
67 | GGCMHPFLPVASHHFCGG (peptide, not shown: large carriers; small tags and cut ends, MBP fusion) [C4-302mat-1-1-35] | 0.534
68 | GGCMHPYLQVVSHHFCGR (peptide, not shown: large carriers; small tags and cut ends, MBP fusion) [C4-302mat-3-1-2] | 1.45
69 | GGCMHPFLPVASHHFCAG (peptide, not shown: large carriers; small tags and cut ends, MBP fusion) [C4-302mat-3-100-27] | 0.927
70 | GGCMHPFLLVVSRHFCGR (peptide, not shown: large carriers; small tags and cut ends, MBP fusion) [C4-302mat-2-100-40] | 0.204
71 | GGCKHPFLLIVSHHFCGR (peptide, not shown: large carriers; small tags and cut ends, MBP fusion; also called #45) [C4-302mat-3-100-39] | 0.136
72 | GGCMHPFLRIVSQHFCRR (peptide, not shown: large carriers; small tags and cut ends, MBP fusion; also called #35) [C4-302mat-2-1-24] | 0.14
73 | GGCMHPYLLVVSRHFCGR (peptide, not shown: large carriers; small tags and cut ends, MBP fusion; also called #41) [C4-302mat-3-1-15] | 0.351
74 | B2 | 1.14
